Laboratory results taken from the Immune Epitope Database (IEDB).

Legend:
Assay in all cases: IEDB peptide-MHC binding, purified MHC/competitive/radioactivity; ≥ and ≤ were set here for values at or beyond the usual limits of such assays
Conditions in all cases: source organism: Homo sapiens
[1] = target: HLA-A*03:01
[2] = target: HLA-A*11:01
[3] = target: HLA-B*07:02

Sequence | IC50 [1] [nM] | IC50 [2] [nM] | IC50 [3] [nM]
VVLASLIYRR | 161 | 80.6 | –
LPHSSSHWL | – | – | 17.2
VVLASLIYR | 17.9 | 3.6 | –
HTMEVTVYHR | 179 | – | –
YMVPFIPLYR | 26.3 | 38.5 | –
QTSAGHFPR | – | 16.1 | –
LIGCWYCRRR | 179 | – | –
SIFEQWLRR | 45.5 | 4.6 | –
GTQCALTRR | – | 31.3 | –
SSSHWLRLPR | – | 45.5 | –
AVVLASLIYR | – | 3.5 | –
